Tests used:
[1] = target: cNTnC N-terminal domain (Homo sapiens) (UniProt P63316); details: cited from earlier work
[2] = target: cTnC(C35S)-i9: cardiac troponin C (C35S) with the levosimendan analog i9 covalently bound to C84 (UniProt P63316); assay: NMR titration; 19F NMR; 530 μM Ca2+-saturated cTnC(C35S)-i9 in NMR buffer (100 mM KCl, 10 mM imidazole, 2 mM CaCl2, pH 6.9), 30 °C, titrated with switch-cTnI (144–163) 0 to 1,540 μM; area under the F4′ signal of i9 fit with one-to-one stoichiometry (xcrvfit)

Sequence of switch-cTnI 144-163 (P19429 144-163): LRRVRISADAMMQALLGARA

| Substance | Kd [1] [µM] | Kd [2] [µM] |
| --- | --- | --- |
| switch-cTnI 144-163 (from UniProt P19429) | 26 |  |
| switch-cTnI (residues 144–163) (peptide) |  | 74 |

From article PMC4831045
